Where a chain is given by its changes, count along the chain named. Blank lines part the entries; values can stand above or below the binder they belong to.
Experiments:
[1] = biological target: T1, Human NME7-AB, also known as NME7AB (recombinant, devoid of the DM10 domain) (human, UniProt Q9Y5B8 92-376); assay: sandwich ELISA, HRP signal (FIG. 1)
T1 construct: Recombinant, expressed in E. coli, purified over NTA-Ni and by size exclusion; monomer of about 33 kDa; also called NME-AB
T1 sequence: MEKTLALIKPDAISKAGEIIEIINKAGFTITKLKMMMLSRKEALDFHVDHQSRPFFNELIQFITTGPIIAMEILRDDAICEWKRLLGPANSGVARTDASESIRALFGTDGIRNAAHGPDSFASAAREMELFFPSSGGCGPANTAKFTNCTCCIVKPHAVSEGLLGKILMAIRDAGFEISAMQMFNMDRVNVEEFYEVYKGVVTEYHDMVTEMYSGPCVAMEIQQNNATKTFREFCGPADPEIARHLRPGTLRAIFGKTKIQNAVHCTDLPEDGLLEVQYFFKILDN
Protocol: The PSMGFR peptide bearing a C-terminal Cysteine (PSMGFR-Cys) was covalently coupled to BSA using Imject Maleimide activated BSA kit (Thermo Fisher). PSMGFR-Cys coupled BSA was diluted to 10 ug/mL in 0.1M carbonate/bicarbonate buffer pH 9.6 and 50 uL was added to each well of a 96 well plate. After overnight incubation at 4° C., the plate was washed twice with PBS-T and a 3% BSA solution was added to block remaining binding site on the well. After 1h at RT the plate was washed twice with PBS-T and NME7, diluted in PBS-T+1% BSA, was added at different concentrations. After 1h at RT the plate was washed 3× with PBS-T and anti-NM23-H7 (B-9, Santa Cruz Biotechnology), diluted in PBS-T+1% BSA, was added at 1/500 dilution. […] After 1h at RT the plate was washed 3× with PBS-T and binding of NME7 was measured at 415 nm using ABTS solution (Pierce). […]
After 1h at RT the plate was washed 3× with PBS-T and His-Tagged PSMGFR peptide (PSMGFR-His) or biotinylated PSMGFR peptide (PSMGFR-biotin), diluted in PBS-T+1% BSA, was added at different concentration. […] After 1h at RT the plate was washed 3× with PBS-T and binding of PSMGFR peptide to NME7 already bound to another PSMGFR peptide (which could not signal by anti-His antibody or by streptavidin) coupled BSA was measured at 415 nm using a ABTS solution (Pierce).

[2] = biological target: T1, Human NME7-AB, also known as NME7AB …; assay: ELISA, plate coated with recombinant NME7-AB (FIG. 24)

B1: PSMGFR peptide (MUC1* extra cellular domain peptide) (peptide)
peptide: GTINVHDVETQFNQYKTEAASRYNLTISDVSVSDVPFPFSAQSGA
notes: Synthetic peptide immobilized on ELISA plates; also called MUC1* peptide; FLR
- binding result [1]: binds

B2: Monoclonal antibody 8F9A4A3 (antibody, V domains shown)
VH: VQLQQSGPELVKPGASVKISCKTSGNTFTEYTMHWVKQSHGKSLEWIGGFNPNNGVTNYNQKFKGKATLTVDKSSSTAYMELRSLTSEDSAVYYCARRYYHSLYVFYFDYWGQGTTLTVSS
VL: ETTVTQSPASLSMAIGEKVTIRCITSTDIDDDMNWYQQKPGEPPKLLISEGNTLRPGVPSRFSSSGYGTDFVFTIENMLSEDVADYYCLQSDNLPLTFGSGTKLEIKR
notes: Mouse monoclonal antibody
- binding result [2]: binds

The next lines start with the values.

- binding result [2]: binds
B3: Monoclonal Antibody 5F3A5D4 (antibody, V domains shown)
VH: B2 VH with E9D, A15T, L103T, Y110S
VL: DIQMTQTTSSLSASLGDRVTISCSASQGISNYLNWFQQKPDGTIKLLIYYTSSLHSGVPSRFSGSGSGTDYSLTISNVEPEDIATYYCQQYSKLPYTFGGGTKLEIKR
notes: Mouse monoclonal antibody

- binding result [2]: binds
B4: Monoclonal Antibody 8F9A5A1 (antibody, V domains shown)
VH: IQLVQSGPELKKPGETVKISCKASGYTFTNYGMNWVKQAPGKGLKWMGWINTYTGEPTYVDDFKGRFAFSLETSATTAYLQINNLKNEDTSTYFCARLRGIRPGPLAYWGQGTLVTVSA
VL: EILLTQSPAIIAASPGEKVTITCSASSSVSYMNWYQQKPGSSPKIWIYGISNLASGVPARFSGSGSGTSFSFTINSMEAEDVATYYCQQRSSYPPTFGGGTKLEIKR
notes: Mouse monoclonal antibody

From US20220259324A1 (MINERVA BIOTECHNOLOGIES, published 2022)
